B1: JN117 (antibody, V domains shown)
VH: QVQLVQSGAEVKKPGASVKVSCKASGYTFTSYDINWVRQATGQGLEWMGWMNPNSGNTGYAQKFQGRVTMTRNTSISTAYMELSSLRSEDTAVYYCALGTTPWYYFDYWGQGTLVTVSS
VL: SYELTQPPSVSVSPGQTARITCSGDALPKQYAYWYQQKPGQAPVLVIYKDSERPSGIPERFSGSSSGTTVTLTISGVQAEDEADYYCQSADSSGTYVFGTGTKVTVL
B2: JN110 (antibody, V domains shown)
VH: QVQLVQSGAEVKKPGSSVKVSCKASGGTFSSYAISWVRQAPGQGLEWMGGIIPIFGTANYAQKFQGRVTITADKSTSTAYMELSSLRSEDTAVYYCARDPAFYYDILTGYGGYYYYGMDVWGQGTTVTVSS
VL: DIVMTQTPLSLSVTPGQPASISCKSSQSLLHSDGKTYLYWYLQKPGQPPQLLIYEVSNRFSGVPDRFSGSGSGTDFTLKISRVEAEDVGVYYCMQSIQLPPTFGQGTKVEIK
B3: JN103 (antibody, V domains shown)
VH: EVQLVKSGGGLIQPGGSLRLSCAASGFTVSSNYMSWVRQAPGKGLEWVSVIYSGGSTYYADSVKGRFTISRDNSKNTLYLQMNSLRAEDTAVYYCARDLYSSGGTDIWGQGTMVTVSS
VL: QTVVTQEPSFSVSPGGTVTLTCGLTSGSVSTSHYPSWYQQTPGQAPRTLIDSTNIRSFGVPDRFSGSILGNKAALTITGAQADDEADYYCILYVGNGIWMFGGGTRLTVL
B4: JN115 (antibody, V domains shown)
VH: QVQLVQSGAEVRKPGASVKVSCKVSGYTLIDLSIHWVRQAPGKGLEWMGGFDPEDGETIYAQKFQGRVTMTEDTSTDTAYMELSSLRSEDTAVYYCATSSSIVISGWFDPWGQGTLVTVSS
VL: QSALTQPASVSGSPGQSITISCTGTSSDVSGYNYVSWYQQHPGKVPKLLIYDVSNRPSGVSNRFSGSKSGNTASLTISGLQAEDEADYYCSSYTSSSTLVYVFGTGTKVTVL
B5: JN007 (antibody, V domains shown)
VH: EVQLVESGGGLIQPGGSLRLSCAASGFTVSSNYMSWVRQAPGKGLEWVSVIYTGGSTYYADSVKGRFTISRDNSNNSLYLRMNSLRAEDTAVYYCARGPYYDFRSGYSPGWFDPWGQGTLVTVSS
VL: not shown
B6: JN109 (antibody, V domains shown)
VH: QVQLVESGGGVVQPGRSLRLSCAASGFTFSSYGMHWVRQAPGKGLEWVAVIWYDGSNKYYADSVKGRFTISRDNSKNTLYLQMNSLRAEDTAVYYCARVRTIFRPLDYMDVWGKGTTVTVSS
VL: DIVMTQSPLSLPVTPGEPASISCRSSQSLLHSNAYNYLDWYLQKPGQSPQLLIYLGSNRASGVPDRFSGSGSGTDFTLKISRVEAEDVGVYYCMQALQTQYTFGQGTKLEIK
B7: JR195 (antibody, V domains shown)
VH: EVQLVESGGGLVQPGRSLRLSCAASGFTFDDYTMHWVRQAPGKGLEWVSAISWNSDALGYADSVKGRFTISRDNAKNSLYLQMNSLRPEDTALYYCAKDIDFGGSGSFDVFHIWGHGTMVTVS
VL: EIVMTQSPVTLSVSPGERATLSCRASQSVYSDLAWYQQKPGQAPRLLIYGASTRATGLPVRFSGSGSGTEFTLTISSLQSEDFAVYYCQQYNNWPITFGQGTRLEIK
B8: JR078 (antibody, V domains shown)
VH: VQLVESGGGVVQPGRSLRLSCAASGFIFRSYGMNWVRQAPGKGLEWVAVMSYDGNDKDYADSVKGRFTISRDDSKNTLYLQMNSLRAEDTAVYYCAKSGGLYCSGGNCYSNYFDYWGRGTLVTVSS
VL: EIVLTQSPGTLSLSPGERATLSCRASQSVSSSYLAWYQQKPGQAPRLLISGASSRAAGIPDRFSGSGSGTDFTLTISRLAPEDFAVYYCQQYGYSLTFGGGTKVEIK
B9: JR060 (antibody, V domains shown)
VH: QVQLVQSGAEVKKPGASVRVSCKASGYTFNNYGIIWVRQAPGQGLEWVGWISAYNANTNYAQKLQGRVSMTTDTPTSTVYMELRSLRSDDTAVYYCASGLGAAGTEPPSDYWGQGTLVTVSS
VL: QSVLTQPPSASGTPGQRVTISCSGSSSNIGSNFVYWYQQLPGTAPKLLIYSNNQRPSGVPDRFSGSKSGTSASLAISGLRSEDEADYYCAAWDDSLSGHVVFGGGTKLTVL
B10: JR072 (antibody, V domains shown)
VH: VQLVESGGGVVQPGRSLRLSCAASGFTFSTYGMHWVRQAPGKGLEWVAGISYDGSDKYYGDSVRGRFTVSRDNSKNTLYLQMNSLRAEDTAVYYCAKGQGPYCSAGNCYTHYFDYWGQGTLVTVSS
VL: EIVLTQSPATLSLSPGERATLSCRASQSVGNYLAWYQQKPGQAPRLLIDDASNRAAGTPARFSGSGSGTDFTLTISSLEPEDFAVYYCQQRSNWPPITFGQGTRLEIK
B11: JR077 (antibody, V domains shown)
VH: EVQLVESGGGLVQPGGSLRLSCAASGFTFSDYDMHWVRQVTGKGLEWVSAVGTRGDTYYAASVKGRFTISRENAKNSLYLQMNSLRAGDTAVYYCARVGYDSTGFYYYFDYWGQGTLVTVSS
VL: DIQLTQSPSSLSASVGDRVTITCRASQRIGRFLNWYQQKPGKAPKLLIYIVSSLQSGVPSRFSGSGSGTDFTLTINSLQPEDFATYYCQQTYNMPPITFGQGTRLEIK
B12: JR068 (antibody, V domains shown)
VH: QVQLQESGPGLVKPSQTLSLTCTVFGGSIRSGDYYWSWIRQPPGKGLEWMGYIYSSGSAYYNPSLESRVTISIDASKNQFSLKVNSVTAADTAVYYCARDGFWFGFGSFDIWGLGTMVTVSS
VL: EIVMTQSPATLSVSPGERAALSCRASQSVSSNLAWYQQRVGQAPRLLIYGASTRATGIPARFSGSGSGTEFTLTISSLQSEDFAVYYCQQYNNWPPLTFGGGTKVEIK
B13: JR325 (antibody, V domains shown)
VH: QVQLQESGPGLVKPSQTLSLTCTVSGGSISSSDYYWSWIRQHPGKGLEWIGFIFYSGTTYYSPALKSRVSISVDTSKSQFSLKLHSVTAADTAVYYCARFSRNLGLNWFDPWGQGTLVTVSS
VL: QFVLTQPASVSGSPGQSITISCTGTSSDIGSYDLVSWYQQYPGKAPKLIIYEVNKRPSGVSSRFSGSKSGNTASLTISGLLAEDEADYYCCSYAGPNTVLFGGGTILTV
B14: JR050 (antibody, V domains shown)
VH: QVQLVQSGAEVKKPGASVKVSCKTSGDTFTNHYMHWVRQAPGQGLEWMGIINPSAGSTSYAQKFQGRVTMTRDTSTSTVYMELSSLRSEDTAVYYCARDIVFIPALDAFDIWGQGTMVTVSS
VL: EIVLTQSPATLSLSPGERATLSCRASQSVSSYLAWYQQKPGQAPRLLIYDTSNRATGIPARFSGSGSGTDFTLTISSLEPEDFAVYYCQQRRNWPPMYTFGQGTKLEIK
B15: JR053 (antibody, V domains shown)
VH: QVQLVQSGAEVKKPGASVKVSCKASGYTFTSHYMHWVRQAPGQGLEWMGIINPSGGSTSHAQKFQGRVTLTSDTSTSTVYMELSSLRSEDTAVYYCARDLSFIPSIAWNCGYWGQGTLVTVSS
VL: QSALTQPASVSGSPGQSITISCTGTSSDVGGYNYVSWYQQHPGKAPKLMIYDVSDRPSGVSNRFSGSKSGNTASLTISGLQAEDEADYYCSSYTSSSSYVFGTGTKVTVL
B16: JR069 (antibody, V domains shown)
VH: EVQLVESGGGLVQPGGSLRLSCAASGFSFSNYDMLWLRQITGRGLEWVSLIGTSGDTYYSDSVKGRFTISRENGKNSLYLQMNRLRAGDTAVYYCARGNFDTSGFYSYFDTWGQGTLVTVSS
VL: DIQLTQSPSYLSASVGDRVTITCRASQTIKNYLNWYQQKPGKAPKLLIYAVSTLQNGVSSRFRGSGSGTDFTLTISSLQPEDFATYYCQQSYTIPPYTFGQGTKLEIK
B17: JR154 (antibody, V domains shown)
VH: EVQLVESGGGLVQPGRSLRLSCEASGFIFDDYAMHWVRQGPGKGLEWVSGITSNSGSMGYADSVKGRFTISRDNAKNSLYLQMNSLRPEDTAFYYCAKDMVSGVFLWFGELENWGQGTLVTVS
VL: QSVLTQPPSASGTPGQRVTISCYGSRSNFGTNTVNWYQQLPGMAPRLLIHSHNQRPSGVPARFSGSKSGTSASLAISGLQSEDEAHYYCASWDGGLNAVVFGGGTKLIVL
B18: JR065 (antibody, V domains shown)
VH: VQLVESGGGVAQPGRSLRLSCAASGFTFSHYGMHWVRQGPGKGLEWVAGISFDGSDKYYADSVKGRFTISRDNSKNTFYLQMNSLRTDDTAVFYCAKQGFGYGSGWYYFDYWGQGTLVTVSS
VL: IRMTQSPSSLSASVGDRVTITCQASQDISKYLNWYQQRPGKAPKPLIYDASNLETGVPSRFSGSGSGTDFTLTITNLQPEDIATYYCQQYDNVPSVTFGQGTRLEIK
B19: JR150 (antibody, V domains shown)
VH: QVQLVQSGAEVKKPGASVKVSCKASRYTFASYYMHWVRQAPGQGLEWMGIINPGGGSTSYAQNFQGRVSMTSDTSTSTVYMELRSLRSEDTAVYYCARDSEFVPTAHGAFEIWGQGTMVTVSS
VL: EIVLTQSPATLSLSPGERATLSCRASQSVSSYLAWYQQKPGQAPRLLIYDASNRATGIPARFSGSGSGTDFTLTISSLEPEDFAVYYCQQRSNWLVTFGGGTKVEIK
B20: JR204 (antibody, V domains shown)
VH: QVQLQESDPGLVTPSETLSLTCTVSGASVSSGSDYWNWIRQPPGKGLEWIGYIYYTGRTNYNPSLKSRVTISVDTSKNQFSLKLSSVTAADTAVYYCAREVIVLPAALPPFGLDVWGQGTTVTVSS
VL: SYELTQPPSVSVAPGKTARITCGGNNIGTKSVHWYQQKPGQAPVLVVYDDSDRPSGIPERFSGSNSENTATLTISRVEAGDEADYSCQVWDSSGDHVVFGGGTKLTVL
B21: JR340 (antibody, V domains shown)
VH: EVQLVESGGGLVQPGRSLRLSCTASGFTFHDYALQWVRQVPGKGLEWVSGISWNSASTGYADSVKGRFTISRDNAKNSLYLQMNSLRAEDTALYYCAKVRSTSCYLACGMDVWGQGTTVTVSS
VL: QSALTQPASVSGSPGQSITISCTGTSSDVGSYNLVSWYQQHPGKAPKLMISEVSKRPSGVSNRFSGSKSGNTASLTISGLQAEDEADYYCCSYALSRILFGGGTKLTVL

target: SARS-CoV-2 Wuhan-Hu-1 NTD (SARS-CoV-2, UniProt P0DTC2 14-307); test: cell-based or functional assay; conditions: not given

**Q.** How did the “neutralisation IC50, WT (293TAce2)” value turn out when B1 was run?
**A.** The value was greater than 1 µg/mL.

**Q.** How did the “neutralisation IC50, WT (293TAce2)” value turn out when B2 was run?
**A.** The value was greater than 1 µg/mL.

**Q.** B3 was tested. Which “neutralisation IC50, WT (293TAce2)” value did it give?
**A.** The value was greater than 1 µg/mL.

**Q.** B4 was tested. Which “neutralisation IC50, WT (293TAce2)” value did it give?
**A.** The value was greater than 1 µg/mL.

**Q.** Which “neutralisation IC50, WT (293TAce2)” value does the source give for B5 here?
**A.** The value was greater than 1 µg/mL.

**Q.** How did the “neutralisation IC50, WT (293TAce2)” value turn out when B6 was run?
**A.** The value was greater than 1 µg/mL.

target: T1, SARS-CoV-2 Wuhan-Hu-1 RBD (SARS-CoV-2, Wuhan-Hu-1 (GenBank …, UniProt P0DTC2)); test: cell-based or functional assay; conditions: not given

**Q.** For B7, which “neutralisation IC50, Wuhan-Hu-1 pseudovirus” value is on record?
**A.** Its value is greater than 1 µg/mL.

**Q.** B8 was tested. Which “neutralisation IC50, Wuhan-Hu-1 pseudovirus” value did it give?
**A.** Its value is greater than 1 µg/mL.

**Q.** For B9, which “neutralisation IC50, Wuhan-Hu-1 pseudovirus” value is on record?
**A.** Its value is greater than 1 µg/mL.

**Q.** For B10, which “neutralisation IC50, Wuhan-Hu-1 pseudovirus” value is on record?
**A.** The value was greater than 1 µg/mL.

**Q.** For B11, which “neutralisation IC50, Wuhan-Hu-1 pseudovirus” value is on record?
**A.** Its value is greater than 1 µg/mL.

**Q.** B12 was tested. Which “neutralisation IC50, Wuhan-Hu-1 pseudovirus” value did it give?
**A.** The value was greater than 1 µg/mL.

**Q.** B13 was tested. Which “neutralisation IC50, Wuhan-Hu-1 pseudovirus” value did it give?
**A.** The value was greater than 1 µg/mL.

**Q.** B14 was tested. Which “neutralisation IC50, Wuhan-Hu-1 pseudovirus” value did it give?
**A.** The value was greater than 1 µg/mL.

**Q.** For B15, which “neutralisation IC50, Wuhan-Hu-1 pseudovirus” value is on record?
**A.** The value was greater than 1 µg/mL.

**Q.** B16 was tested. Which “neutralisation IC50, Wuhan-Hu-1 pseudovirus” value did it give?
**A.** Its value is greater than 1 µg/mL.

**Q.** With B17 as the binder, how does the “neutralisation IC50, Wuhan-Hu-1 pseudovirus” value read?
**A.** Its value is greater than 1 µg/mL.

**Q.** For B18, which “neutralisation IC50, Wuhan-Hu-1 pseudovirus” value is on record?
**A.** The value was greater than 1 µg/mL.

**Q.** Which “neutralisation IC50, Wuhan-Hu-1 pseudovirus” value does the source give for B19 here?
**A.** Its value is greater than 1 µg/mL.

**Q.** B20 was tested. Which “neutralisation IC50, Wuhan-Hu-1 pseudovirus” value did it give?
**A.** Its value is greater than 1 µg/mL.

**Q.** With B21 as the binder, how does the “neutralisation IC50, Wuhan-Hu-1 pseudovirus” value read?
**A.** The value was greater than 1 µg/mL.

target: T1, SARS-CoV-2 Wuhan-Hu-1 RBD; test: BLI; conditions: both partners purified

**Q.** Does B7 bind?
**A.** Result: binds

**Q.** Does B8 bind?
**A.** Result: binds

**Q.** Does B9 bind?
**A.** Result: binds

**Q.** Does B10 bind?
**A.** Result: binds

**Q.** Does B11 bind?
**A.** Result: binds

**Q.** Does B12 bind?
**A.** Result: binds

**Q.** Does B13 bind?
**A.** Result: binds

**Q.** Does B14 bind?
**A.** Result: binds

**Q.** Does B15 bind?
**A.** Result: binds

**Q.** Does B16 bind?
**A.** Result: binds

**Q.** Does B17 bind?
**A.** Result: binds

**Q.** Does B18 bind?
**A.** Result: binds

**Q.** Does B19 bind?
**A.** Result: binds

**Q.** Does B20 bind?
**A.** Result: binds

**Q.** Does B21 bind?
**A.** Result: binds

— PMC9253517 (The Journal of Experimental Medicine, 2022)
